# Assay results from publication PMC2907741 (Biochemistry, 2009).
# Read-outs that look alike come from different tables or passages of the source. Bridge positions count the residues as written; N and C are the ends. Ends that are not written are not given here.
# B1: 8 kDa fragment of plasma gelsolin (173-242), D187N (domain or fragment, human)
# chain: ATEVPVSWESFNNGNCFILDLGNNIHQWCGSNSNRYERLKATQVSKGIRDNERSGRARVHVSEEGTEPEA
# modifications: disulfide 16-29
# B2: 5 kDa fragment of plasma gelsolin (173-225), D187N (domain or fragment, human)
# chain: ATEVPVSWESFNNGNCFILDLGNNIHQWCGSNSNRYERLKATQVSKGIRDNER
# modifications: disulfide 16-29
# Tests used:
# [1] = biological target: the molecule itself; experiment: thioflavin T fluorescence aggregation assay
# [2] = biological target: the molecule itself; experiment: thioflavin T fluorescence aggregation assay; remark: listed apart in the source
protein,measurement,setting,value
B1,binding result,[1],binds
B2,binding result,[2],binds
